For 167 variants, self-cleavage results are on record in the RNAGym collection of RNA variant scans (doi:10.7554/elife.80360).

B1: HDV Ribozyme (parent)
chain: GGCCGGCAUGGUCCCAGCCUCCUCGCUGGCGCCGGCUGGGCAACAUUCCGAGGGGACCGUCCCCUCGGUAAUGGCGAAUGGGACCCA

Variants of B1 are the subject of this data set. The data set can be described thus: self-cleavage, relative activity (ratio to wild type); higher = more cleavage; co-transcriptional.
As for G6A A70G, the self-cleavage was 0.629.
With G11A C75A, the self-cleavage amounted to 0.
As to A51C C84A, the self-cleavage is 0.675.
Take C18U G55C: the self-cleavage amounted to 0.893.
For U20A A83G the value was 0.14.
For the variant U72G G81C, the self-cleavage was 0.0791.
With G52A G67U, the self-cleavage came to 0.843.
G1A A8G: the self-cleavage is 0.166.
Regarding U47A G53U, the self-cleavage came out at 0.755.
Consider C44U U60A, for which the self-cleavage worked out at 0.594.
On to G5A G28A, for which the self-cleavage was 0.0378.
Regarding G5U G34U, the self-cleavage was 0.0426.
As to U12C C64G, the self-cleavage was 0.308.
Take A45U C85U: the self-cleavage worked out at 0.877.
Take G5U C18A: the self-cleavage was 0.0875.
For G10U A16G the value was 0.618.
U46C U47G: the self-cleavage was determined as 0.703.
The value for C58A A71G was 0.897; that for G35U C49G was 0.325.
As to C3U A87C, the self-cleavage turned out to be 0.759.
For G34A G39U the value was 0.287.
For C21G U46A the value was 0.147.
For C15G U37A, the self-cleavage came to 0.
Take G76U A77G: the self-cleavage was found to be 0.978.
Turning to G35U G74C, the self-cleavage worked out at 0.272.
As for G40A A51G, the self-cleavage amounted to 0.749.
For G10A C26A, the self-cleavage worked out at 0.906.
For G2A U20C the value was 0.0536.
As to G53U C75U, the self-cleavage turned out to be 0.277.
Regarding G28C C57U, the self-cleavage was found to be 0.0277.
Take U23C C85U: the self-cleavage was determined as 0.849.
In the case of G34U C85G, the self-cleavage was 0.128.
U9C G55U: the self-cleavage was 1.2.
For G17U C22A the value was 0.0831.
On to G29A C33U, for which the self-cleavage turned out to be 0.111.
As to C7G U37C, the self-cleavage was 0.399.
For the variant C19U C41G, the self-cleavage amounted to 0.116.
Regarding G39C C49G, the self-cleavage amounted to 0.219.
G6C G82C: the self-cleavage is 0.0405.
For the variant C15A U23A, the self-cleavage amounted to 0.604.
For the variant A56C G74C, the self-cleavage turned out to be 0.312.
Regarding C18U G53A, the self-cleavage turned out to be 0.639.
As for C58G G76U, the self-cleavage is 1.11.
The value for G29U C58A was 0.204; that for C18U C26U was 0.848; that for C18U C26A was 0.591.
Turning to G1A C44A, the self-cleavage was found to be 0.0426.
Regarding A56G C63A, the self-cleavage turned out to be 0.831.
Consider U23G C24A, for which the self-cleavage came out at 0.706.
Take U23C U79G: the self-cleavage came out at 0.883.
As for C61A A78U, the self-cleavage stood at 0.131.
Turning to U72C G74A, the self-cleavage amounted to 0.363.
Regarding G38C A78G, the self-cleavage amounted to 0.0639.
With C75A C86U, the self-cleavage is 0.0615.
For C13A A51U, the self-cleavage came out at 0.172.
In the case of C4A G38U, the self-cleavage worked out at 0.0449.
Consider U37C A70C, for which the self-cleavage amounted to 1.04.
Consider G68U C75A, for which the self-cleavage is 0.234.
Consider C7G U60A, for which the self-cleavage was 0.317.
C22A A43G: the self-cleavage stood at 0.151.
As to C21G C62U, the self-cleavage stood at 0.
As for G1A G35C, the self-cleavage came out at 0.0723.
Take C26A C58A: the self-cleavage was found to be 1.24.
As to G55C C75U, the self-cleavage is 0.0361.
A71G G73U: the self-cleavage turned out to be 0.291.
The value for G31A G53A was 0.487; that for C18G G73U was 0.119; that for G29U G54U was 0.0449.
The value for U46G A77C was 0.0875.
For C15A G73U the value was 0.095; for C15A G39A, 0.095; for C24U A83C, 0.219.
C24G G67U: the self-cleavage was determined as 0.135.
With C66G G81A, the self-cleavage came to 0.408.
For A45U G73A the value was 0.616; for G29A C36U, 0.0264.
For the variant C21A G31A, the self-cleavage was found to be 0.0482.
For U27A U72C, the self-cleavage amounted to 0.277.
For C21G A43G the value was 0.128; for G1C C61A, 0.208.
Consider G2C C3U, for which the self-cleavage is 0.102.
For the variant C58G G67U, the self-cleavage amounted to 0.892.
Turning to C7A C62U, the self-cleavage came out at 0.721.
Regarding C19G G34A, the self-cleavage was 0.248.
For the variant U37A G59U, the self-cleavage was 0.181.
In the case of G39U G54C, the self-cleavage is 0.76.
For U27C U69G the value was 0.712; for C44U C75A, 0.108.
In the case of U27G U79A, the self-cleavage stood at 0.462.
On to U27G U79G, for which the self-cleavage worked out at 0.427.
Consider C32U C44U, for which the self-cleavage came out at 0.564.
Turning to C36U G55U, the self-cleavage was determined as 0.8.
For G52A C64A the value was 0.786; for C21A G53U, 0.135; for U20C U27G, 0.185.
In the case of G54C A71G, the self-cleavage was determined as 0.646.
With C21U G73A, the self-cleavage was 0.0955.
With C18G C75U, the self-cleavage stood at 0.0615.
For G25A C84A, the self-cleavage came to 0.175.
C32G C49U: the self-cleavage is 0.0811.
Turning to G17U U79A, the self-cleavage was 0.755.
For the variant C21G A87C, the self-cleavage worked out at 0.0594.
Consider G6A U20G, for which the self-cleavage came out at 0.262.
For C13G C26G, the self-cleavage is 0.0978.
On to C7A U37A, for which the self-cleavage stood at 0.229.
Take C7A U37C: the self-cleavage was 0.719.
Consider C49A C61A, for which the self-cleavage worked out at 0.759.
Consider U37A G82U, for which the self-cleavage came to 0.166.
On to C19A G38C, for which the self-cleavage worked out at 0.0248.
As for C21U A51U, the self-cleavage turned out to be 0.308.
Turning to C4U C30A, the self-cleavage was determined as 0.133.
In the case of C19G C30A, the self-cleavage was found to be 0.0225.
The value for C19A A83C was 0.0426; that for G6A C84U was 0.628; that for C14A C66A was 0.578.
Turning to G52C C62A, the self-cleavage came to 0.878.
With C75A U79A, the self-cleavage worked out at 0.256.
As to C4U U37A, the self-cleavage came out at 0.
On to G6U C49U, for which the self-cleavage came to 0.485.
Turning to C19U G28A, the self-cleavage was determined as 0.956.
For the variant G34U G80A, the self-cleavage is 0.113.
On to G11U G39C, for which the self-cleavage turned out to be 0.
As for U37C G67C, the self-cleavage worked out at 0.989.
As to U37C G67U, the self-cleavage worked out at 0.974.
The value for G34C A43G was 0; that for A16C U79A was 1.06.
Take C22A A51G: the self-cleavage came to 0.457.
Take G28U G34A: the self-cleavage came to 0.0496.
Take C21U U65C: the self-cleavage worked out at 0.198.
Take U9A U79A: the self-cleavage stood at 0.923.
G2C G67C: the self-cleavage worked out at 0.113.
On to G55C C66G, for which the self-cleavage amounted to 1.2.
On to U46C A70G, for which the self-cleavage turned out to be 1.03.
For G1U G28U the value was 0.295; for C41U U69C, 0.955.
For C22U G39U the value was 0.163; for G31U C48U, 0.619.
In the case of C41U C57A, the self-cleavage was 0.986.
For C4G A56C the value was 0.32.
In the case of G11A G40A, the self-cleavage worked out at 0.582.
For the variant U37C U47A, the self-cleavage stood at 0.864.
With U9C C26G, the self-cleavage came out at 0.886.
Consider G17C G50U, for which the self-cleavage worked out at 0.332.
As for C30A A78U, the self-cleavage came out at 0.237.
Turning to C33A G53C, the self-cleavage came to 0.332.
C57A G76A: the self-cleavage is 1.18.
For the variant A51G C64G, the self-cleavage is 0.902.
As to G5C G81U, the self-cleavage stood at 0.131.
For C64A C75G the value was 0.18; for G76C, 1; for C14A G74A, 0.182.
Take C13U G39U: the self-cleavage is 0.495.
On to C58G A70G, for which the self-cleavage is 1.03.
Consider U9C G35A, for which the self-cleavage is 0.394.
Take C48U C84A: the self-cleavage worked out at 0.958.
As to G52C C75U, the self-cleavage was determined as 0.134.
With C18A C36A, the self-cleavage is 0.0361.
With A78C G80U, the self-cleavage came to 0.174.
For the variant C7A G39U, the self-cleavage is 0.18.
Consider A51G C61G, for which the self-cleavage was found to be 0.964.
The value for C48A U69A was 0.814; that for U9G G73A was 0.665.
As for U9G G73C, the self-cleavage worked out at 0.767.
C22G C26U: the self-cleavage came to 0.208.
In the case of G40C A42G, the self-cleavage worked out at 0.196.
For U60G the value was 0.978; for A16C G28U, 0.0437.
